# Experimental data from patent US20260209363A1 (Chugai, published 2026).
# T1: IL6R on IL6R-CHO cells (CHO cells forced to express IL6R) (UniProt P08887 20-468, limits assumed)
# T1 construct: whole, on cells; also called membrane-type IL6R; IL6R on the cell membrane
# T1 sequence (looked up): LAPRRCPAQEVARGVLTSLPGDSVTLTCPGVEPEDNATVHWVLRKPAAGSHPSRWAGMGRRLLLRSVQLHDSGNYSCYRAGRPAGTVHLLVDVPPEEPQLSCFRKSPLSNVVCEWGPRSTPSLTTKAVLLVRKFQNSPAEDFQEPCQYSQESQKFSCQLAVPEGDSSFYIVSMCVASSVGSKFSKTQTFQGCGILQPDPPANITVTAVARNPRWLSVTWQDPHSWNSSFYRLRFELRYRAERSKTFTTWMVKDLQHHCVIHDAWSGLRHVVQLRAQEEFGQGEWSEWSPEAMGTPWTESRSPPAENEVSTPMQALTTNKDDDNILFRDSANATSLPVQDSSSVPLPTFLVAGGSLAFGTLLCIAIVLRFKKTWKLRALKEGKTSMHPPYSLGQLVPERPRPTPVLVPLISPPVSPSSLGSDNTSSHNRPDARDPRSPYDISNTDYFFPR
# T2: human soluble IL-6R (human, UniProt P08887 20-357, limits assumed)
# T2 construct: Soluble form; also called sIL6R; Human IL-6R
# T2 sequence (looked up): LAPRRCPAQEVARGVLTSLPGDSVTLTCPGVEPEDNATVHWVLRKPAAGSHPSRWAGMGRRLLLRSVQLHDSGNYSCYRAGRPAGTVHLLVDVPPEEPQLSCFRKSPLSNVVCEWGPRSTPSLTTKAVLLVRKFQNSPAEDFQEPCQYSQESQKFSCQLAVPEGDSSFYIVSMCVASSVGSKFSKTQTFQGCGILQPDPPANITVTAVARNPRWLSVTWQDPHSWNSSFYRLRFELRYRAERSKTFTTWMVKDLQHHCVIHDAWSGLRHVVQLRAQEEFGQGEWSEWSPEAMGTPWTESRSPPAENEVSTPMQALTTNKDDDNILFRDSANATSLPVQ
# T3: MOG on mouse oligodendrocytes (mouse, UniProt Q61885 29-246)
# T3 construct: whole, on cells; also called MOG on the cell membrane; MOG expressed by cells in the brain
# T3 sequence (looked up): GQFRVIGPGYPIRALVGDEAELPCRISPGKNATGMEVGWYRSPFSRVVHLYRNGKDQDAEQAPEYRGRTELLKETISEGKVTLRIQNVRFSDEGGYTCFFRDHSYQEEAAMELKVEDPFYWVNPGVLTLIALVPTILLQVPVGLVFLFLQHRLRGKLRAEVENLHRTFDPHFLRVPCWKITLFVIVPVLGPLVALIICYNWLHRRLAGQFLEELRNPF
# T4: Mouse MOG (R&D system) (mouse, UniProt Q61885 29-156, limits assumed)
# T4 construct: also called mouse soluble MOG; soluble MOG
# T4 sequence (looked up): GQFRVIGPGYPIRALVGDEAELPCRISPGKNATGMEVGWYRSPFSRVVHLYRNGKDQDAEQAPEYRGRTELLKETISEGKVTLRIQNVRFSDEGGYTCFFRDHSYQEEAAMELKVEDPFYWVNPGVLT
# B1: IC17 (antibody, human IgG1, kappa, V domains shown)
# VH: QVQLQQSGPQLVRPGASVKISCKASGYSFTSYWMHWVNQRPGQGLEWIGMIDPSYSETRLNQKFKDKATLTVDKSSSTAYMQLSSPTSEDSAVYYCALYGNYFDYWGQGTTLTVSS
# VL: DIQMTQSSSSFSVSLGDRVTITCKASEDIYNRLAWYQQKPGNAPRLLISGATSLETGVPSRFSGSGSGKDYTLSITSLQTEDVATYYCQQYWSTPYTFGGGTKLEVKR
# notes: also called Anti-KLH antibody
# Key:
# [1] = target: T1, IL6R on IL6R-CHO cells (CHO cells …); test: flow cytometry on IL6R-CHO cells, 4 degrees C 60 min, detection with Alexa Fluor 647 anti-dGK antibody; (a) MSA-free medium, (b) medium with 50 mg/mL MSA, (c) mouse plasma [a), (b), (c]
# Method: Binding ability of albumin switch molecules against the membrane-type antigens were verified. Specifically, the antibodies (10 micro g/mL) indicated below were incubated with IL6R-CHO cells (Chiome Bioscience, 2×10⁵ cells/well) in mouse serum albumin (MSA)-free CHO-S-SFM II medium (Thermo Fisher Scientific), 50 mg/mL Recombinant MSA (Albumin Bioscience)-containing medium, or mouse plasma (6-week-old male C57BL/6J mouse) at 4 degrees C. for 60 minutes. Antibodies used for the reaction were IC17, H54//IC17, and ABD094(H/L)-H54//IC17. After the reaction, the cells were washed three times with PBS(−). Addition of Alexa Fluor 647-labeled anti-dGK antibody (10 micro g/mL) was followed by incubation at 4 degrees C. for 30 minutes. Lastly, the cells were suspended in PBS(−) and analyzed by FACSCantoII (BD).
# human soluble IL-6R = target: T2, human soluble IL-6R; test: Gyrolab xP complex assay in C57BL/6J mouse plasma: antibody 0.15 µg/mL and human soluble IL-6R 0.15 µg/mL (final), capture by biotinylated anti-human IL-6R antibody, detection with AF647-anti-delta GK; signal as % of H54//IC17
# Method: First, to bind the albumin-binding portion to albumin in the plasma, the anti-human IL-6R antibodies (albumin switch molecules) indicated in Example 2 were diluted to 0.6 micro g/mL using C57BL/6J mouse plasma, and then incubated at room temperature for one hour. Next, for binding of the anti-human IL-6R antibody to the target antigen, one equivalent of human soluble IL-6R diluted to 0.6 micro g/mL in mouse plasma was added to the antibody solutions, and then the solutions were incubated at room temperature for one hour.
# To detect the antigen-antibody complexes, first, the anti-delta GK antibody (AF647-anti-delta GK) was labeled using an Alexa flour 647 labeling kit (A20186, Thermo Fisher Scientific) according to the attached protocols. […]
# Measurement of antigen-antibody complexes was performed using Gyrolab xP. […] The amount of the captured complex was detected by the fluorescence signal of AF647 (Detect PMT 25%). The fluorescence signal of AF647 was analyzed by Gyro Evaluator (version 3.6.2.30, Gyros Protein Technologies).
# [2] = target: T3, MOG on mouse oligodendrocytes; test: flow cytometry on mouse brain cell suspension, O4-positive/CD45-negative oligodendrocyte fraction, 4 degrees C 60 min, detection with Alexa Fluor 647 anti-delta GK antibody; (a) MSA-free DPBS, (b) DPBS with 50 mg/mL MSA, (c) mouse plasma [a), (b), (c]
# Method: The binding ability of albumin switch molecules against the membrane-type antigens were examined. Specifically, the antibodies (10 micro g/mL) indicated below were incubated with mouse brain cell suspension (2×10⁵ cells/well), in mouse serum albumin (MSA)-free DPBS (Thermo Fisher Scientific), DPBS containing Recombinant MSA (Albumin Bioscience) at 50 mg/mL, or mouse plasma (6 weeks old, male C57BL/6J mouse) at 4 degrees C. for 60 minutes. The mouse brain cell suspension was prepared from mouse brain using Adult Brain Dissociation Kit (Miltenyi Biotec) and gentleMACS (Miltenyi Biotec). Antibodies used for the reaction were IC17, MOG//IC17, and ABD094(H/L)-MOG//IC17. After the reaction, the cells were washed once with DPBS. […] Lastly, the cells were suspended in DPBS and analyzed by FACSCantoII (BD). The fluorescence intensities of Alexa Fluor 647 in the MOG-expressing oligodendrocyte O4-positive/CD45-negative fractions were measured (Schroeter, C. B. et al., One Brain-All Cells: A Comprehensive Protocol to Isolate All Principal CNS-Resident Cell Types from Brain and Spinal Cord of Adult Healthy and EAE Mice. Cells 2021, 10(3), 651).
# Mouse MOG (R&D system) = target: T4, Mouse MOG (R&D system); test: plasma MOG clearance in mice after IC17 0.2 mg/kg IV and MOG 0.021 mg/kg IV
binder,measurement,setting,value
B1,binding result,[1],no binding (tested: 10 µg/mL)
same,binding result,human soluble IL-6R,no binding (tested: 0.15 µg/mL)
same,binding result,[2],no binding (tested: 10 µg/mL)
same,binding result,Mouse MOG (R&D system),no binding
